Our source for the reduction of co-occurrence with microtubules in the in-soluble fraction against wild type (+/+), other: pellet / supernatant ratio and other: in-soluble / soluble ratio values is PMC9300677.

Assay [1] concerns the target microtubules of Tuba4aΔpolyGlu (p/p) mice, containing mutant Tuba4a without C-terminal polyglutamylation (mouse (endogenous in hippocampal neurons and hippocampus)) (UniProt P68368). As to the kind of experiment: soluble-tubulin extraction assay (TX-100 extraction); DIV15 hippocampal neurons extracted 90 s at 37 °C in MT-extraction buffer (80 mM PIPES pH 6.9, 0.3% Triton X-100, 150 mM NaCl); soluble and in-soluble (polymerized microtubules with associated MAPs) fractions compared by western blot. In general terms: A western blot detects proteins with antibodies after separation by electrophoresis.
UniProt P68368, sequence (P68368 whole entry, looked up, stated change not applied): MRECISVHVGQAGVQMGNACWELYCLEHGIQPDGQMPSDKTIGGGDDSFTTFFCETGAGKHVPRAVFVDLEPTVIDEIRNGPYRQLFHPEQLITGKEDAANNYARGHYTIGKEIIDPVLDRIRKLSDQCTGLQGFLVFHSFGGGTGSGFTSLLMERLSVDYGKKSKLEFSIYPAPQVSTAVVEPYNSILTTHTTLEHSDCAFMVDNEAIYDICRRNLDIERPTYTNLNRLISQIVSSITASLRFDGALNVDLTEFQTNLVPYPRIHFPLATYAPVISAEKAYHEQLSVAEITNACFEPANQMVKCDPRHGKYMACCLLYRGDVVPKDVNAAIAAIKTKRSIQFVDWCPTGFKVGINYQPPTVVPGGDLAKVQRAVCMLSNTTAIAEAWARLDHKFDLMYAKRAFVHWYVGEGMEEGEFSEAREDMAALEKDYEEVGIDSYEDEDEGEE

In another assay the target is GSK3α (UniProt Q2NL51). In words: microtubule pelleting assay, western blot quantification. The following applies: re-polymerization of hippocampal tubulin from adult mice; n = 3 mice per genotype; parent: est. 0.30; read off a plot.
UniProt Q2NL51, sequence (Q2NL51 whole entry, looked up): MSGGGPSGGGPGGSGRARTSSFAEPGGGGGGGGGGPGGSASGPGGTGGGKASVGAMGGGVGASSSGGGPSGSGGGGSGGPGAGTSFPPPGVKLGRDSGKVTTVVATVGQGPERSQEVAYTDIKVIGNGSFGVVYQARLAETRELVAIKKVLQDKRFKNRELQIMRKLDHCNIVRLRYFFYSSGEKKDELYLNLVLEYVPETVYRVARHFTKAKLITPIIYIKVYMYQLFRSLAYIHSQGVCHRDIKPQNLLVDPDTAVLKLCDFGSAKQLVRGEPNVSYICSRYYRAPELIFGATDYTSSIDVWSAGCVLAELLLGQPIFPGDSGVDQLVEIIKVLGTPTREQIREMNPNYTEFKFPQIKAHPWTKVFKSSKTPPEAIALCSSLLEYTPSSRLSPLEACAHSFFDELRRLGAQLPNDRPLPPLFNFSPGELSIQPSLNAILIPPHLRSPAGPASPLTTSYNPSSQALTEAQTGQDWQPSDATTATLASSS
Assay [2] addresses GSK3β (UniProt Q9WV60). Described as above. The following applies: re-polymerization of hippocampal tubulin from adult mice; n = 3 mice per genotype; parent: est. 0.40; read off a plot.
UniProt Q9WV60, sequence (Q9WV60 whole entry, looked up): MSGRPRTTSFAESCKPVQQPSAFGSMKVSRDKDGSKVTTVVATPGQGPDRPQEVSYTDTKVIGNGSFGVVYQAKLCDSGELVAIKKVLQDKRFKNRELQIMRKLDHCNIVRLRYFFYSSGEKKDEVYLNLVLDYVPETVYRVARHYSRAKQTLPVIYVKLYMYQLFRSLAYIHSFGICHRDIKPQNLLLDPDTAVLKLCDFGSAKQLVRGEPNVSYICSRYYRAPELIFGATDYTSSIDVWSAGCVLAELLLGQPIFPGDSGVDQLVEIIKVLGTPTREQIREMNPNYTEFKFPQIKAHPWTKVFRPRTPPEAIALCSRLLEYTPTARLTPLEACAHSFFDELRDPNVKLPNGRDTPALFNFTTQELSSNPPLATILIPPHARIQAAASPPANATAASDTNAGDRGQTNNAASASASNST
Assay [3] concerns the target GSK3β (UniProt Q9WV60). In words: soluble-tubulin extraction assay, western blot quantification. The note with it: DIV15 neurons; n = 4 independent cultures per genotype; parent: est. 1.5; read off a plot.

In assay [1], “MAP2a/b (from UniProt P20357 1-1828) (natural protein)” gave a reduction of co-occurrence with microtubules in the in-soluble fraction against wild type (+/+) of over 50%.

For “Tau (mouse, endogenous) (from UniProt P10637 1-733) (natural protein)”, the reduction of co-occurrence with microtubules in the in-soluble fraction against wild type (+/+) in assay [1] is over 50%.

As for “microtubules of wild-type (+/+) mice, containing polyglutamylated Tuba4a (from UniProt P68368;Q9ERD7) Tuba4aΔpolyGlu (p/p)”, the other: pellet / supernatant ratio in the assay with GSK3α and with GSK3β [2] was 0.15 in each case. Besides, the other: in-soluble / soluble ratio in the assay with GSK3β [3] worked out at 0.73.
